Assay: yeast display, Sf9 membrane polyspecificity reagent, FACS + sequencing; frameworks hold sequencing errors
Method in brief: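 After 36–48 hours of galactose induction, yeast (Saccharomyces cerevisiae BJ5465) displaying a synthetic nanobody library were stained at 4 °C for 1 hour with 10% biotinylated, detergent-solubilized Sf9 membrane reagent. Streptavidin microbeads enriched the stained cells before FACS sorting into low and high (top ~1%) gates on anti-HA and streptavidin fluorescence. Each clone's polyreactivity label reflects its gate of origin.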

In the case of “QVQLVESGGGLVQAGGSLRLSCAASGSIFEINAMGWYRQAPGKERELVAAITQSGGITYYADSVKGRFTISRDNAKNTVYLQINSLKPEDTAVYYCNTPLLKRTTRGRERNYWGQGTQVTVSS”, the “polyreactivity (PSR sort gate)” value is reported as “low polyreactivity”.

In the case of “QVQLVESGGGLVQAGGSLRLSCAASGSIFEIYAMGWYRQAPGKERELVASITWSGGSTYYADSVKGRFTISRDNAKNTVYLQMNSRKPEDTAVYYCATDKLYGRTVRMDYWGQGTQVTVSS”, the “polyreactivity (PSR sort gate)” value is reported as “low polyreactivity”.

For “QVQLVESGGGLVQAGGSLRLSCAASGSIFEPNAMGWYRQAPGKERELVAAISWNDGDTYYADSVKGRFTISRDNAKNTVYLQMNSLKPVDTAVYYCAAETGYAFDYWGQGTQVTVSS”, the “polyreactivity (PSR sort gate)” value was “low polyreactivity”.

With “QVQLVESGGGLVQAGGSLRLSCAASGSIFEPYAMGWYRQAPGKERELVAAISSDGTTNYADSVKGRFTISRDNAKNTVYLQMNSLKPEDTAVYYCAADVFNWGYYYWGQGTQVTVSS” the “polyreactivity (PSR sort gate)” value was “low polyreactivity”.

In the case of “QVQLVESGGGLVQAGGSLRLSCAASGSIFEPYAMGWYRQAPGKERELVAGIRKSGATTYYADSVKGRFTISRDNAKNTVYLQMNSLKPEDSAVYYCNAVVKSSSRGSISHPGYDYWGQGTQVTVSS”, the “polyreactivity (PSR sort gate)” value is reported as “high polyreactivity”.

In the case of “QVQLVESGGGLVQAGGSLRLSCAASGSIFEPYTMGWYRQAPGKERELVAAITGSGGSTFYADSVKGRFTISRDNAKNTVYLQMNSLKPEDTAVYYCNAYAYPYTDVDYWGQGTQVTVSS”, the “polyreactivity (PSR sort gate)” value is reported as “low polyreactivity”.

For “QVQLVESGGGLVQAGGSLRLSCAASGSIFESYAMGCYRQAPGKERELVAAITKRGGSTYYADSVKGRFTISRDNSKNTFYLQMNSLKPEDTAVYYCNARSPGIGPIYDYWGQGTQVTVSS”, the “polyreactivity (PSR sort gate)” value was “low polyreactivity”.

With “QVQLVESGGGLVQAGGSLRLSCAASGSIFESYAMGWYRQAPGKERELVAAITLSGTSTYYADSVKGRFTISRDNAKNTVYLQMNSLKPEDTAVYYCNAKPIPVRGSYDYWGQGTQVTVSS” the “polyreactivity (PSR sort gate)” value was “low polyreactivity”.

With “QVQLVESGGGLVQAGGSLRLSCAASGSIFESYAMGWYRQAPGKEWELVASISGGGSTYYADSVKGRFTISRDNAKNTVYLQMNSLKPEDTAVYYCATVYVRYRQSRLIRYGYWVQGTQVTVSS” the “polyreactivity (PSR sort gate)” value was “high polyreactivity”.

In the case of “QVQLVESGGGLVQAGGSLRLSCAASGSIFETNAMGWYRQAPGKERELVAAITGSGGSTYYADSVKGRFTISRDNAKNTVYLQMNSLIPVDTEVYYCAADSSGQSRFGYWGQGTQVTVSS”, the “polyreactivity (PSR sort gate)” value is reported as “low polyreactivity”.

In the case of “QVQLVESGGGLVQAGGSLRLSCAASGSIFETYAMGWYRQAPGKEWELVAAISRTSGRTYYADSVKGRFTISRDNAKNTVYLQMNSLKPDDTAVYYCAAVVRNPGTYDYWGHGTQVTVSS”, the “polyreactivity (PSR sort gate)” value is reported as “high polyreactivity”.

With “QVQLVESGGGLVQAGGSLRLSCAASGSIFEVYAMGWYRQAPVKERELVAAIDYSDGTTYYADSVKGRFTISRDNAKNTVYFQMNSLKPEDTAVYYCAADFPGQHYDYWGQGTQVTVSS” the “polyreactivity (PSR sort gate)” value was “low polyreactivity”.

For “QVQLVESGGGLVQAGGSLRLSCAASGSIFEWYAMGWYRQAPGKERELVAAISSSGTSTYYADSVKGRFTISRDNAKNTVYLQMNSLKPEDTAVYYCNTDLSRLSQHDYWGQGTQVTVSS”, the “polyreactivity (PSR sort gate)” value was “low polyreactivity”.

For “QVQLVESGGGLVQAGGSLRLSCAASGSIFEWYAMGWYRQAPGKERELVADISSVGSTYYADSVKGRFTISRDNAKNTVYLQMNSLKPEDTAVYYCNTSYIIWYDSWGQGTQVTVSS”, the “polyreactivity (PSR sort gate)” value was “low polyreactivity”.

With “QVQLVESGGGLVQAGGSLRLSCAASGSIFEYNGMGWSRQAPGKERELVAAITTTGTTDYADSVKGRFTISRDNAKNTVYLQMNSLKPEDTAVYYCAADYTYYYKGEYDYWGQGTQVTVSS” the “polyreactivity (PSR sort gate)” value was “low polyreactivity”.

In the case of “QVQLVESGGGLVQAGGSLRLSCAASGSIFEYNGMGWYRQAPGKERELVAAITTTGTTDYADSVKGRFTISRDNAKNTVYLQMNSLKPEDTAVYYCAADYTYYYKGEYDYWGQGTQVTVSS”, the “polyreactivity (PSR sort gate)” value is reported as “low polyreactivity”.

In the case of “QVQLVESGGGLVQAGGSLRLSCAASGSIFEYYPMGWYRQAPGKERELVAAISWSGGSTYYADSVKGRFSISRDNAKNTVYFQMNSLKPEDTAVYYCAARGYWGQGTQVTVSS”, the “polyreactivity (PSR sort gate)” value is reported as “low polyreactivity”.

In the case of “QVQLVESGGGLVQAGGSLRLSCAASGSIFFAYAMGWYRQAPGKERELVAAIRSGVRTNYADSVKGRFTISRDNAKNTVYIQMNSLKPEDTAVYYCNTDLSKFGHRVSLSGYDYWGQGTQVNVSS”, the “polyreactivity (PSR sort gate)” value is reported as “low polyreactivity”.

With “QVQLVESGGGLVQAGGSLRLSCAASGSIFFAYDMGWYRQAPGKERELVAAINFDGTSTYYADSVKGRFTISRDNAKNTVYLQMNTLKPEDTAVYYCNKRVSPTYKGQYVYWGQGTQVTVSS” the “polyreactivity (PSR sort gate)” value was “low polyreactivity”.

With “QVQLVESGGGLVQAGGSLRLSCAASGSIFFAYVMGWYRQAPGKERELDAVITYSGGSTYYADSVKGRFTISRDNAKNTVYLQMNSLKPEDTAVYDCAADETSALDDYWGQGTQVTVSS” the “polyreactivity (PSR sort gate)” value was “low polyreactivity”.

With “QVQLVESGGGLVQAGGSLRLSCAASGSIFFDYGMGWYRQAPGKERELVATITRGTGSTYYADSVKGRFTISRDNAKNTVYLQMNSLKPEDTAVYYCAAGWHYVYRTPGFGYWGQGTQVTVSS” the “polyreactivity (PSR sort gate)” value was “high polyreactivity”.

For “QVQLVESGGGLVQAGGSLRLSCAASGSIFFEYAMGWYRQAPGKERELVAAISRRGGSTYYADSVKGRFTISRDNAKNTVYLQMNSLKPEDTAVYYCNKVNRASRGDYDYWGQGTQVTVSS”, the “polyreactivity (PSR sort gate)” value was “high polyreactivity”.

For “QVQLVESGGGLVQAGGSLRLSCAASGSIFFEYAMGWYRQAPGKERELVASINRGGGSTYYADSVKGRFTISRDNAKNTVYLQMNSLIPEDTAVYYCAAQCKYRQSYLDYYWGQGTQVTVSS”, the “polyreactivity (PSR sort gate)” value was “low polyreactivity”.

For “QVQLVESGGGLVQAGGSLRLSCAASGSIFFGYGMGWYRQAPGKERELVATITTSGGTYYADSVKGRFTISRDNAKNTVYLQMNSLKPEDTAVYYCNKEDYGLYPYYVSVGYDYWGQGTQVTVSS”, the “polyreactivity (PSR sort gate)” value was “low polyreactivity”.

With “QVQLVESGGGLVQAGGSLRLSCAASGSIFFIYAMGWYRQAPGKERELVAAINDGGGSTYYADSVKGRFTISRDNAKNTVYLLMNSLKPEDTAVYYCAAEWSWGPYRYDYWGQGTQVTVSS” the “polyreactivity (PSR sort gate)” value was “high polyreactivity”.

For “QVQLVESGGGLVQAGGSLRLSCAASGSIFFIYAMGWYRQAPGKERELVAAISWSDDSTYYADSVKGRFTISRDNAKNTVYLQMNSLKPEDTAVYYCAARYYIGYGHRTYGYDYWGQGTQVTVSS”, the “polyreactivity (PSR sort gate)” value was “high polyreactivity”.

In the case of “QVQLVESGGGLVQAGGSLRLSCAASGSIFFIYAMGWYRQAPGKERELVATITSGGSTYYADSVNGRFTISRDNAKNTVYLQMNSLKPEDTAVYYCAVDEYFAFDYWGQGTQVTVSS”, the “polyreactivity (PSR sort gate)” value is reported as “low polyreactivity”.

In the case of “QVQLVESGGGLVQAGGSLRLSCAASGSIFFIYDMGWYRQAPGKERELVADITSGGGSTFYADSVKGRFTISRDNAKNTVYLQMNRLKPEVSAVYYCATDDHDQPGGQLYITEVNYWGQGTQVTVSS”, the “polyreactivity (PSR sort gate)” value is reported as “low polyreactivity”.

With “QVQLVESGGGLVQAGGSLRLSCAASGSIFFLYAMGWYRQAPGKERELVAAISCSGGRTYYADSVKGRFTISRDNAKNTDYIQMNSLKPEDTAVYYCAASYSGRQDRYPHYDYWGQGTQVTVSS” the “polyreactivity (PSR sort gate)” value was “low polyreactivity”.

In the case of “QVQLVESGGGLVQAGGSLRLSCAASGSIFFNNTKGWYRPAPGKERELVAAINWSGTSTYYADSVKGRFTISRDNAMNTVYLQMNSLKPEDTEVYYCAADVVRSNFDGTFLYDYDYWGLGTQVTVSS”, the “polyreactivity (PSR sort gate)” value is reported as “low polyreactivity”.

For “QVQLVESGGGLVQAGGSLRLSCAASGSIFFNTMGWYRQAPGKERELVAAINTSGGRTYYADSVKGRFTISRDNAKNTVYLQMNSLKPEDTAVYYCATTAYSQYYTYYYWGQGTQVTVSS”, the “polyreactivity (PSR sort gate)” value was “high polyreactivity”.

For “QVQLVESGGGLVQAGGSLRLSCAASGSIFFPNAMGWYRQAPGKERELVAAITSTSTNYADSVKGRCTISRDNAKNTVYLQMNSLKPEDTAVYYCAADGEFRRAWYEGDYWGQGTQVTVSS”, the “polyreactivity (PSR sort gate)” value was “low polyreactivity”.
